This note sets out measurements from article PMC10830565 (2024).

In one assay the target is T1, GST-BCL7A-YFP (Arabidopsis thaliana, UniProt F4JL58).
T1 chain: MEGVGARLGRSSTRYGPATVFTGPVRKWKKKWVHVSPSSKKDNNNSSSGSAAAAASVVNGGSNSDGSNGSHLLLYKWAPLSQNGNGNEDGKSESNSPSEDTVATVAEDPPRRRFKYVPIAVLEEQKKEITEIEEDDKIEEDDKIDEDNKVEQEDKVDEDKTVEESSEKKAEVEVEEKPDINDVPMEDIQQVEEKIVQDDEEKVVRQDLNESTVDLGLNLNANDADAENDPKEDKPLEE
As to the kind of experiment: GST pull-down.

Another assay deals with T2, GST-BCL7B-CFP (Arabidopsis thaliana, UniProt Q9FLP2).
T2 chain: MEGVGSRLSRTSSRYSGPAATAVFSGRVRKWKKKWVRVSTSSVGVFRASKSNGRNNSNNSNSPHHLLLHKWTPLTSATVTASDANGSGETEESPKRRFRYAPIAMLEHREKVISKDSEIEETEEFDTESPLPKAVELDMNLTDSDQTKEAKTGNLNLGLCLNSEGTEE
As to the kind of experiment: GST pull-down.

B1: MBP-BRM (422-952)-HIS (protein)
chain: MQQPRQLNTPTPNLVAPSDTGPLSNSSLQSGQGTQQAQQRSGFTKQQLHVLKAQILAFRRLKKGEGSLPPELLQAISPPPLELQTQRQISPAIGKVQDRSSDKTGEDQARSLECGKESQAAASSNGPIFSKEEDNVGDTEVALTTGHSQLFQNLGKEATSTDVATKEEQQTDVFPVKSDQGADSSTQKNPRSDSTADKGKAVASDGSQSKVPPQANSPQPPKDTASARKYYGPLFDFPFFTRKLDSYGSATANANNNLTLAYDIKDLICEEGAEFLSKKRTDSLKKINGLLAKNLERKRIRPDLVLRLQIEEKKLRLSDLQSRVREEVDRQQQEIMSMPDRPYRKFVRLCERQRLEMNRQVLANQKAVREKQLKTIFQWRKKLLEAHWAIRDARTARNRGVAKYHEKMLREFSKRKDDGRNKRMEALKNNDVERYREMLLEQQTNMPGDAAERYAVLSSFLTQTEDYLHKLGGKITATKNQQEVEEAANAAAVAARLQGLSEEEVRAAATCAREEVVIRNRFTEMNAPKEN
As for B1, the binding result with GST-BCL7A-YFP and with GST-BCL7B-CFP was “binds” in each case.
